The target of data set [1] is hLysRSΔN65 (human lysyl-tRNA synthetase, N-terminally truncated) (human, UniProt Q15046 66-597, del1-65). Briefly: fluorescence anisotropy. (In general: Fluorescence polarisation rises when a labelled molecule tumbles more slowly, as on binding a larger partner.)
For data set [2], the target named is hLysRS (full-length human lysyl-tRNA synthetase) (human, UniProt Q15046 1-597). The experiment in a line: fluorescence anisotropy.
Sequence of hLysRS (full-length human lysyl-tRNA synthetase) (Q15046 whole entry): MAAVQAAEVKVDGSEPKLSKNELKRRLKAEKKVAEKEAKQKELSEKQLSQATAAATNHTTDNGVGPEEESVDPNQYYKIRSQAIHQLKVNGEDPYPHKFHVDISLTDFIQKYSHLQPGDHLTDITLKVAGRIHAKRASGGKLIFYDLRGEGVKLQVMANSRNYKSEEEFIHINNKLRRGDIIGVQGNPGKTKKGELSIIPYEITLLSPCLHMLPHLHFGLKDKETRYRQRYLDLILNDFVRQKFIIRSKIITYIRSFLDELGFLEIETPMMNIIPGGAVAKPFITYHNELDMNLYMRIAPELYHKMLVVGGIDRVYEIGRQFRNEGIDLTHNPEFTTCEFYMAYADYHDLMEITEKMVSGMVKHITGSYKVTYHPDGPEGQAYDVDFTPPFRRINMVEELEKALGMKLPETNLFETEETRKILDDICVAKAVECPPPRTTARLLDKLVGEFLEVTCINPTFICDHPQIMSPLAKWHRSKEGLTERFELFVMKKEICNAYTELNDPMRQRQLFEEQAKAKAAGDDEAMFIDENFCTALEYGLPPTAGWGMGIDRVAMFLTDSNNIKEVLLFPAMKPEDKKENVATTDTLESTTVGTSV

Sequence of hLysRSΔN65 (human lysyl-tRNA synthetase, N-terminally truncated) (Q15046 66-597, stated change not applied): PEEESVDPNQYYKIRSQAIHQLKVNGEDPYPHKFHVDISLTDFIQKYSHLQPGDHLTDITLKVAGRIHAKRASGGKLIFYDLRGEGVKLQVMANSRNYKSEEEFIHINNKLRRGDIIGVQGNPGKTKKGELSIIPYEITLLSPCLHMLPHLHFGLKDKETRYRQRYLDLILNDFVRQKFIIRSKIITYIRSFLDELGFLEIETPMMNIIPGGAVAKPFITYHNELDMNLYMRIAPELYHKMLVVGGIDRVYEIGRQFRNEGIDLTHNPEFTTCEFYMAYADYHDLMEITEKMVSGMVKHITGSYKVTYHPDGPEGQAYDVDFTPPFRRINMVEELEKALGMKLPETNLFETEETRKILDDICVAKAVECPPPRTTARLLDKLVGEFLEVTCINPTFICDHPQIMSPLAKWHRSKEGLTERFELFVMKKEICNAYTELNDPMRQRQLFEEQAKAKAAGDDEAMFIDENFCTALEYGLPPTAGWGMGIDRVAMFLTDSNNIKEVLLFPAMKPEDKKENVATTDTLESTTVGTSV

GGCGACGGUGUAAAAAUCUCGCC (structured_RNA) [HP1 (A-rich stem-loop)]: the binding result in data set [1] and in data set [2] was “no binding” throughout.

In the case of GGGCUUUAAAGUGAAAGCCC (structured_RNA) [HP2], the binding result in data set [1] is reported as “no binding”.

These data come from paper PMC5689005.
